Consider three molecules from PMC10397247.

One assay addresses T1, 4H568-bN.
T1 chain: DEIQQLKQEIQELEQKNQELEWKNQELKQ
Nature of the assay: two-hybrid library CCNG1.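 Also: natural log of median RNA to DNA barcode read ratio; higher means stronger binding.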

In the next assay the target is T2, 4H918-bN.
T2 chain: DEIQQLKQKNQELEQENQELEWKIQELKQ
Nature of the assay: two-hybrid library CCNG1.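 Also: natural log of median RNA to DNA barcode read ratio; higher means stronger binding.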

A further assay has as its target T3, 4H883-bN.
T3 chain: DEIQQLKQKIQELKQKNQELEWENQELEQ
Nature of the assay: two-hybrid library CCNG1.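 Also: natural log of median RNA to DNA barcode read ratio; higher means stronger binding.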

The target in another assay is T4, 4H72-bN.
T4 chain: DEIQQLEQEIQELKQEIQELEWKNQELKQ
Put plainly: two-hybrid library CCNG1.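 Also: natural log of median RNA to DNA barcode read ratio; higher means stronger binding.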

The target in a further assay is T5, 4H967-bN.
T5 chain: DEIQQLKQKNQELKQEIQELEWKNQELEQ
Nature of the assay: two-hybrid library CCNG1.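 Also: natural log of median RNA to DNA barcode read ratio; higher means stronger binding.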

The target in a further assay is T6, 4H607-bN.
T6 chain: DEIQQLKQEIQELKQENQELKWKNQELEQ
Put plainly: two-hybrid library CCNG1.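 Also: natural log of median RNA to DNA barcode read ratio; higher means stronger binding.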

The next assay deals with T7, 4H462-bN.
T7 chain: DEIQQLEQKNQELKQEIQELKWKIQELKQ
Nature of the assay: two-hybrid library CCNG1.

The target of the next assay is T8, 4H953-bN.
T8 chain: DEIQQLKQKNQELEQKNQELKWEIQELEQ
Put plainly: two-hybrid library CCNG1.

The target of the next assay is T9, 4H797-bN.
T9 chain: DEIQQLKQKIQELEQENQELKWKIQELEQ
Put plainly: two-hybrid library CCNG1.

The target of another assay is T10, 4H687-bN.
T10 chain: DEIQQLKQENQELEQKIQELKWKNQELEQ
Nature of the assay: two-hybrid library CCNG1.

The target in the next assay is T11, 4H741-bH.
T11 chain: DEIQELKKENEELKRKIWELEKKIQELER
Put plainly: two-hybrid library CCNG1.

For a further assay, the target named is T12, 4H477-bH.
T12 chain: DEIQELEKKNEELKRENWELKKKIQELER
Nature of the assay: two-hybrid library CCNG1.

The target in the next assay is T13, 4H492-bH.
T13 chain: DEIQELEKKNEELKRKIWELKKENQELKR
Nature of the assay: two-hybrid library CCNG1.

The next assay concerns the target T14, 4H40-bH.
T14 chain: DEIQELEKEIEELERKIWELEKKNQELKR
Nature of the assay: two-hybrid library CCNG1.

The next assay has as its target T15, 4H2837-AA.
T15 chain: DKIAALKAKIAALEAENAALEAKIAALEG
Put plainly: two-hybrid library CCmax. Conditions: mean of both orientations.

The next assay has as its target T16, 4H2617-AA.
T16 chain: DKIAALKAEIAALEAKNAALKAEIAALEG
Nature of the assay: two-hybrid library CCmax. Conditions: mean of both orientations.

For a further assay, the target named is T17, 4H566-AA.
T17 chain: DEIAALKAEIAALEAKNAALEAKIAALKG
Put plainly: two-hybrid library CCmax. Particulars: mean of both orientations.

In a further assay the target is T18, 4H881-AA.
T18 chain: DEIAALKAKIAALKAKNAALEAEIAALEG
Put plainly: two-hybrid library CCmax. Particulars: mean of both orientations.

Another assay concerns the target T19, 4H678-AA.
T19 chain: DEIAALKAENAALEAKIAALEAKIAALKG
Nature of the assay: two-hybrid library CCmax. Particulars: mean of both orientations.

In a further assay the target is T20, 4H3606-AA.
T20 chain: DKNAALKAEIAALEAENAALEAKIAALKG
Nature of the assay: two-hybrid library CCmax. Particulars: mean of both orientations.

The target in a further assay is T21, 4H2729-AA.
T21 chain: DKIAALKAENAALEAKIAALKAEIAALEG
Put plainly: two-hybrid library CCmax. Particulars: mean of both orientations.

The target of a further assay is T22, 4H3921-AA.
T22 chain: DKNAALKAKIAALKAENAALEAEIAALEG
Put plainly: two-hybrid library CCmax. Conditions: mean of both orientations.

The next assay has as its target T23, 4H2754-AA.
T23 chain: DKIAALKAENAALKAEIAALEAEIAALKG
Put plainly: two-hybrid library CCmax. Particulars: mean of both orientations.

For the next assay, the target named is T24, 4H717-AA.
T24 chain: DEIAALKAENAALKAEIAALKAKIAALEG
Put plainly: two-hybrid library CCmax. Particulars: mean of both orientations.

In the next assay the target is T25, 4H429-AA.
T25 chain: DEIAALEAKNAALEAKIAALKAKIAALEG
Nature of the assay: two-hybrid library CCmax.

The next assay concerns the target T26, 4H3627-AA.
T26 chain: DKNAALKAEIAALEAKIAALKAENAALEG
Put plainly: two-hybrid library CCmax.

Another assay addresses T27, 4H317-AA.
T27 chain: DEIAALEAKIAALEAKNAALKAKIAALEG
Nature of the assay: two-hybrid library CCmax. Particulars: mean of both orientations.

A further assay has as its target T28, 4H48-AA.
T28 chain: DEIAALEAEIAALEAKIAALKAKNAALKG
Put plainly: two-hybrid library CCmax. Particulars: mean of both orientations.

Another assay has as its target T29, 4H2944-AA.
T29 chain: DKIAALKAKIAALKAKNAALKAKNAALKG
Put plainly: two-hybrid library CCmax. Particulars: mean of both orientations.

A further assay has as its target T30, 4H993-AA.
T30 chain: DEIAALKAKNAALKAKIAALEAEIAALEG
Put plainly: two-hybrid library CCmax. Particulars: mean of both orientations.

In another assay the target is T31, 4H3655-AA.
T31 chain: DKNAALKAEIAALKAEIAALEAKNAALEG
Put plainly: two-hybrid library CCmax. Particulars: mean of both orientations.

In the next assay the target is T32, 4H2883-AA.
T32 chain: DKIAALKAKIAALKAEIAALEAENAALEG
Nature of the assay: two-hybrid library CCmax. Particulars: mean of both orientations.

The target in a further assay is T33, 4H2949-AA.
T33 chain: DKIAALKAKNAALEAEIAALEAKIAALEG
Nature of the assay: two-hybrid library CCmax. Particulars: mean of both orientations.

Another assay addresses T34, 4H2642-AA.
T34 chain: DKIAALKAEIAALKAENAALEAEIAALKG
Put plainly: two-hybrid library CCmax. Conditions: mean of both orientations.

The target in another assay is T35, 4H3844-AA.
T35 chain: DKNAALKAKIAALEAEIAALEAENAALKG
Nature of the assay: two-hybrid library CCmax. Conditions: mean of both orientations.

The target of the next assay is T36, 4H2505-AA.
T36 chain: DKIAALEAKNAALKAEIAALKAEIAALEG
Nature of the assay: two-hybrid library CCmax.

A further assay deals with T37, 4H3427-AA.
T37 chain: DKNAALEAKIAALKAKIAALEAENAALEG
Nature of the assay: two-hybrid library CCmax. Conditions: mean of both orientations.

In the next assay the target is T38, 4H794-AA.
T38 chain: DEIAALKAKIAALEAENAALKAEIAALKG
Nature of the assay: two-hybrid library CCmax. Particulars: mean of both orientations.

For the next assay, the target named is T39, 4H605-AA.
T39 chain: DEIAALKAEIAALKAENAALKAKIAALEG
Put plainly: two-hybrid library CCmax. Particulars: mean of both orientations.

The target in a further assay is T40, 4H454-AA.
T40 chain: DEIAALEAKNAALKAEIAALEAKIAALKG
Nature of the assay: two-hybrid library CCmax. Conditions: mean of both orientations.

The next assay concerns the target T41, 4H335-AA.
T41 chain: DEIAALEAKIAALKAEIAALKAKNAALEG
Put plainly: two-hybrid library CCmax. Particulars: mean of both orientations.

Another assay has as its target T42, 4H2575-AA.
T42 chain: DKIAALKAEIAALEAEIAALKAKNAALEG
Nature of the assay: two-hybrid library CCmax. Particulars: mean of both orientations.

For a further assay, the target named is T43, 4H342-AA.
T43 chain: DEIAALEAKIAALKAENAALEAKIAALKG
Nature of the assay: two-hybrid library CCmax. Conditions: mean of both orientations.

For a further assay, the target named is T44, 4H906-AA.
T44 chain: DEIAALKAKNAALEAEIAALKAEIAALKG
Nature of the assay: two-hybrid library CCmax. Conditions: mean of both orientations.

In another assay the target is T45, 4H780-AA.
T45 chain: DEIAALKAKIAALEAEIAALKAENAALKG
Nature of the assay: two-hybrid library CCmax. Conditions: mean of both orientations.

The target in another assay is T46, 4H3112-AA.
T46 chain: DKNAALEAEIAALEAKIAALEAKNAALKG
Put plainly: two-hybrid library CCmax. Particulars: mean of both orientations.

The next assay addresses T47, 4H3343-AA.
T47 chain: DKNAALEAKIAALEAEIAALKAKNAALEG
Put plainly: two-hybrid library CCmax. Particulars: mean of both orientations.

On to DEIQQLEQKNQELKQEIQELKWKIQELKQ [4H462-bN], for which the interaction score with 4H568-bN was 0.685; with 4H918-bN it was -1.19; with 4H883-bN, -1.4; with 4H72-bN, -0.825; with 4H967-bN, -0.954; with 4H607-bN, 0.42. Further, the interaction score in the assay with 4H462-bN was -0.578; in the assay with 4H953-bN, -0.25; with 4H797-bN it was -0.297; with 4H687-bN, -0.147.
Take DEIQELEKEIEELERKIWELEKKNQELKR [4H40-bH]: the interaction score with 4H741-bH is 0.646; in the assay with 4H477-bH it was -0.00296; in the assay with 4H492-bH, 0.0489; with 4H40-bH, -0.0343.
For DKIAALEAKNAALKAEIAALKAEIAALEG [4H2505-AA], the interaction score in the assay with 4H2837-AA is 1.03; in the assay with 4H2617-AA it was -0.92; with 4H566-AA it was -0.341; with 4H881-AA, -1.43; with 4H678-AA, 1.78; with 4H3606-AA, 1.04. The interaction score in the assay with 4H2729-AA is 2.02; in the assay with 4H3921-AA it was -0.328; with 4H2754-AA, 1.69; with 4H717-AA, -0.029; in the assay with 4H429-AA, 1.6; with 4H3627-AA, -1.54. The interaction score in the assay with 4H317-AA was -1.65; with 4H48-AA, 0.908; in the assay with 4H2944-AA, -1.9; with 4H993-AA, -1.53; with 4H3655-AA, -1.61; in the assay with 4H2883-AA, -0.918. Besides, the interaction score with 4H2949-AA was 1.68; with 4H2642-AA, -0.234; in the assay with 4H3844-AA it was -1.01; with 4H2505-AA, 1.09; with 4H3427-AA, -1.04; with 4H794-AA it was -0.881. Also, the interaction score with 4H605-AA is -1.14; with 4H454-AA, 2.21; with 4H335-AA, -1.01; with 4H2575-AA it was -0.277; with 4H342-AA it was 1.06; with 4H906-AA it was 0.636. For the same molecule, the interaction score in the assay with 4H780-AA is -1.6; in the assay with 4H3112-AA, -1.11; with 4H3343-AA, -1.59.
